Data from article PMC3956856, “Interaction of Kinase-Interaction-Motif Protein Tyrosine Phosphatases with the Mitogen-Activated Protein Kinase ERK2” (PLoS ONE, 2014).

Experiments:
p38α [1] = conditions: ref [14], cited from earlier work; for Kd: values previously published, [15], [17], [18]
From the text: We used ITC measurements to determine the binding affinity of STEP and PTPSL for unphosphorylated ERK2 ( Table 1; Figure S1). […] This complex has a ∼3-times lower Kd (tighter binding) than the next tightest complex, ERK2:PTPSL, and a nearly 70-fold greater affinity than the weakest complex, p38α:HePTP [15]. Like STEP, PTPSL binds ERK2 more tightly (∼3.5-fold) than p38α. We also tested peptides that include the kinase specificity s ... || We also generated a chimeric protein in which we fused the PTPSLKIMKIS to STEPCAT (PSchimera; Figure 1A ). […] Thus, they only adopt a single conformation when they bind their respective MAPKs. This is different from the MAPK-binding domains (MKBD) of MAPK phosphatases (MKP; dual specificity phosphatases; DUSPs), [26]. In MKPs, the KIM sequence is part of a stable, folded domain and thus adopts a single, ordered conformation in both the unbound and MAPK-bound states, [28]. […] Our ... || (+ 1 further places)

ERK2 [2] = target: T1, ERK2 (Rattus norvegicus, UniProt P63086); experiment: Isothermal titration calorimetry with ERK2; assay type: binding
T1 construct: gene Mapk1; made in house
Method: The PTPSLKIM peptide (residues 331–348), STEPKIM (residues 213–229) and STEPKIMKIS (residues 213–256) were synthesized, HPLC purified and verified by mass spectrometry (MS) (>98% purity; Biosynthesis, Inc.). Expression and purification of ERK2 and PTPSLKIMKIS (residues 332–373) was carried out as previously described, [15]. PTPSL (residues 332–655, human), STEP (residues 213–539, mouse) and PSChimera (PTPSL residues 332–373 with STEP residues 257–539; gene synthesized by DNA 2.0) were expressed and purified using the protocol previously described in detail for STEPCAT (residues 244–539). The DUSP16 MAPK binding domain (residues 5–138, human) was expressed and purified as previously described. All purified proteins were stored at −80 °C until use at which point they were thawed and exchanged into the appropriate buffer using size exclusion chromatography (SEC; Superdex 75 26/60; GE Healthcare). The final protein buffer was dependent on the experiment performed. For ITC experiments, the final SEC purification was performed in ITC buffer (10 mM Tris pH 7.5, 150 mM NaCl, 0.1 mM EDTA, 0.5 mM TCEP); for SAXS experiments, the final SEC purification was performed in SAXS buffer (50 mM HEPES pH 6.8, 150 mM NaCl, 5 mM dithiothreitol). PTPSLKIM, STEPKIM and STEPKIMKIS peptides were solubilized in ITC buffer prior to ITC measurements.
ITC experiments were performed at 25 °C using a VP-ITC microcalorimeter (Microcal Inc.). Titrant (10 μL per injection) was injected into the sample cell over a period of 20 seconds with a 250 second interval between titrations to allow for complete equilibration and baseline recovery. 28 injections were delivered during each experiment and the solution in the sample cell was stirred at 307 rpm to ensure rapid mixing. To determine the thermodynamic parameters (ΔH, ΔS, ΔG) and binding constants (K) of the ERK2:PTPSLKIM, ERK2:PTPSL, ERK2:STEP and ERK2:PSChimera interactions, PTPSLKIM, PTPSL, STEP and PSChimera were titrated into ERK2. To determine the same parameters for the ERK2:STEPKIM, ERK2:PTPSLKIMKIS and ERK2:STEPKIMKIS interaction, ERK2 was titrated into the peptides. Titrants were chosen based on the amount of purified protein/peptide available for the experiment. For all titrations the concentrations were slightly varied to ensure independence of the Kd from the protein/peptide concentrations. Data were analyzed with a one-site binding model assuming a binding stoichiometry of 1∶1 using Origin 7.0 software. A nonlinear least-squares algorithm and the titrant and sample cell concentrations were used to fit the heat flow per injection to an equilibrium binding equation, providing values of the stoichiometry (n), change in enthalpy (ΔH) and binding constant (K). All data were repeated in triplicate.

ERK2 [3] = target: T1, ERK2; conditions: [17], cited from earlier work; for Kd: ERK2, values previously published, ref [14], [15], [18]; for tighter binding to ERK2 than to p38α: HePTP residues 15–339 and HePTP KIM-peptide residues 15–31, ref [16]
From the text: Over the last years different groups, including ours, have studied the interaction of MAPK regulatory proteins, as well as substrates, with different MAPKs, especially ERK2, p38 and JNK [12]–[17]. However, while a plethora of cell biological data is available, much less systematic interaction data using quantitative methods, such as isothermal titration calorimetry (ITC), has been reported. This is of special interest, as recent studies have shown that while KIM-peptides derived from KIM-containing regulatory proteins and substrates readily discriminate between ERK2/p38 and JNK, they discr ... || We used ITC measurements to determine the binding affinity of STEP and PTPSL for unphosphorylated ERK2 ( Table 1; Figure S1). […] This complex has a ∼3-times lower Kd (tighter binding) than the next tightest complex, ERK2:PTPSL, and a nearly 70-fold greater affinity than the weakest complex, p38α:HePTP [15]. Like STEP, PTPSL binds ERK2 more tightly (∼3.5-fold) than p38α. We also tested peptides that include the kinase specificity s ... || Figure 3 Regulatory protein-MAPK interaction strengths. The binding strengths of each KIM-PTP (KIM peptides and KIM-containing MKBDs (in orange font), light blue; KIMKIS peptides, light purple; proteins, light pink) to p38α and ERK2 represented from weakest to tightest (largest Kd to smallest Kd) binding affinity; ‘^†’ indicates values previously published, [15], [17], [18]. KIM-PTP:MAPK complexes determined to be extended using SAXS written in normal text; KIM-PTP:MAPK complexes determined to be compact written in italics; *, compact nature of the ERK2-PTPSL complex determined by ...

ERK2 [4] = target: T1, ERK2; conditions: ref [16], cited from earlier work
[5] = target: T2, extracellular signal-regulated kinase 2 (ERK2), unphosphorylated (UniProt P63086 1-358); experiment: ITC; ERK2 titrated into STEPKIM, PTPSL KIMKIS or STEP KIMKIS in the cell; 25 °C; 10 mM Tris pH 7.5, 150 mM NaCl, 0.1 mM EDTA, 0.5 mM TCEP; one-site model; triplicate; conditions: both partners purified
T2 construct: ERK2 (extracellular signal-regulated kinase 2), unphosphorylated; also called MAPK; source: final SEC (Superdex 75 26/60)

p38α [6] = conditions: NMR spectroscopy; ref [14]; cited from earlier work
From the text: Although there are a few structural differences between ERK2 and p38α in this region (e.g., the activation loop is six residues longer in ERK2), nearly all residues that that we sh ... || The KIM domains of KIM-PTPs are intrinsically disordered in solution [14], [15]. Thus, they only adopt a single conformation when they bind their respective MAPKs. This is different from the MAPK-binding domains (MKBD) of MAPK phosphatases (MKP; dual specificity phosphatases; DUSPs), [26]. In MKPs, the KIM sequence is part of a stable, folded domain and thus adopts a single, ordered conformation in both the unbound and MAPK-bound states, [28]. […] Our ...

[7] = target: T2, extracellular signal-regulated kinase 2 …; experiment: ITC; PTPSLKIM, PTPSL, STEP or PSChimera titrated into ERK2 in the cell; 25 °C; 10 mM Tris pH 7.5, 150 mM NaCl, 0.1 mM EDTA, 0.5 mM TCEP; one-site model; triplicate; conditions: both partners purified
[8] = ERK2:HePTP resting-state complex

## HePTPKIM: HePTP KIM-peptide (residues 15–31) (TLSLGAAMTQPPPEKTP; KIM peptide; UniProt P35236 15-31, looked up, fragment) [reference compound]
p38α [1]
  Kd: 5150 ± 1290 nM
ERK2 [2]; KIM peptides of the KIM-PTPs
  differences in affinity of KIM peptides for ERK2 versus p38α: 4.0
ERK2 [3]
  Kd: 1280 ± 110 nM
  tighter binding to ERK2 than to p38α: ~4 times

## HePTPKIMKIS: HePTP KIMKIS peptide, values previously published (VRLQERRGSNVALMLDVRSLGAVEPICSVNTPREVTLHFLRT)
ERK2 [3]
  Kd: 679 ± 122 nM

B1: HePTP: HePTP (residues 15–339), hematopoietic protein tyrosine phosphatase (protein, UniProt P35236 15-339, looked up, fragment)
chain: TLSLGAAMTQPPPEKTPAKKHVRLQERRGSNVALMLDVRSLGAVEPICSVNTPREVTLHFLRTAGHPLTRWALQRQPPSPKQLEEEFLKIPSNFVSPEDLDIPGHASKDRYKTILPNPQSRVCLGRAQSQEDGDYINANYIRGYDGKEKVYIATQGPMPNTVSDFWEMVWQEEVSLIVMLTQLREGKEKCVHYWPTEEETYGPFQIRIQDMKECPEYTVRQLTIQYQEERRSVKHILFSAWPDHQTPESAGPLLRLVAEVEESPETAAHPGPIVVHCSAGIGRTGCFIATRIGCQQLKARGEVDILGIVCQLRLDRGGMIQTAEQ
ERK2 [4]; [8]
  maximum dimension (Dmax): 110 Å
  radius of gyration (Rg): 33.3 Å
ERK2 [4]; resting-state complex, SAXS
  shape of the complex with ERK2 (in words): highly extended in solution
p38α [1]
  Kd: 2570 ± 650 nM
ERK2 [3]
  Kd: 371 ± 40 nM
  tighter binding to ERK2 than to p38α: ~7 times

B2: PTPSL KIMKIS (PTPSL residues 332-373) (peptide, UniProt Q15256 332-373, looked up)
chain: GLQERRGSNVSLTLDMSSLGNIEPFVSIPTPREKVAMEYLQS
notes: PTPSL/PTPBR7 (PTPRR), residues 332-373 (KIM and KIS); human is stated for the PTPSL 332-655 construct; Recombinant, not synthetic; source: final SEC
[5]
  Kd: 825 nM

B3: STEP KIMKIS peptide (STEP residues 213-256) (peptide, UniProt P54830 213-256, looked up)
peptide: MGLQERRGSNVSLTLDMCTPGCNEEGFGYLVSPREESAHEYLLS
notes: STEP (PTPN5), residues 213-256 (KIM and KIS); mouse is stated for the STEP 213-539 construct; source: synthetic peptide (Biosynthesis, Inc.), HPLC purified, >98% purity
[5]
  Kd: 123 nM

B4: STEPCAT: STEPCAT (residues 244–539), catalytic domain of STEP (protein, UniProt P54829 244-539, looked up, fragment)
chain: GSNVSLTLDMCTPGCNEEGFGYLMSPREESAREYLLSASRVLQAEELHEKALDPFLLQAEFFEIPMNFVDPKEYDIPGLVRKNRYKTILPNPHSRVCLTSPDPDDPLSSYINANYIRGYGGEEKVYIATQGPIVSTVADFWRMVWQEHTPIIVMITNIEEMNEKCTEYWPEEQVAYDGVEITVQKVIHTEDYRLRLISLKSGTEERGLKHYWFTSWPDQKTPDRAPPLLHLVREVEEAAQQEGPHCAPIIVHCSAGIGRTGCFIATSICCQQLRQEGVVDILKTTCQLRQDRGGMI
modifications: catalytic domain
notes: STEPCAT (residues 244–539), catalytic domain of STEP
p38α [6]
  interaction with p38α by NMR (in words): interacts directly with p38α

B5: STEPKIM peptide (STEP residues 213-229) (peptide, UniProt P54830 213-229, looked up)
peptide: MGLQERRGSNVSLTLDM
notes: STEP (PTPN5, striatal enriched protein tyrosine phosphatase), residues 213-229 (KIM); mouse is stated for the STEP 213-539 construct; source: synthetic peptide (Biosynthesis, Inc.), HPLC purified, >98% purity
[5]
  Kd: 546 nM

B6: PTPSLKIM peptide (PTPSL residues 331-348) (peptide, UniProt Q15256 331-348, looked up)
peptide: IGLQERRGSNVSLTLDMS
notes: PTPSL/PTPBR7 (PTPRR, PTP STEP-like), residues 331-348 (KIM); human is stated for the PTPSL 332-655 construct; source: synthetic peptide (Biosynthesis, Inc.), HPLC purified, >98% purity
[7]
  Kd: 463 nM
  dH: -23.5 kcal/mol

B7: PS_(Chimera) (PTPSL residues 332-373 with STEP residues 257-539) (other, human | mouse, UniProt Q15256 332-373, looked up)
chain: GLQERRGSNVSLTLDMSSLGNIEPFVSIPTPREKVAMEYLQSASRVLRAEELHEKALDPFLLQAEFFEIPMNFVDPKEYDIPGLVRKNRYKTILPNPHSRVRLTSPDPEDPLSSYINANYIRGYSGEEKVYIATQGPIVSTVADFWRMVWQERTPIIVMITNIEEMNEKCTEYWPEEQVVHDGVEITVQKVIHTEDYRLRLISLRRGTEERSLKHYWFTSWPDQKTPDRAPPLLHLVREVEEAAQQEGPHCSPIIVHCSAGIGRTGCFIATSICCQQLRREGVVDILKTTCQLRQDRGGMIQTCEQYQFVHHAMSLYEKQLSLQS
notes: PTPSL (PTPRR), residues 332-373 (KIM and KIS); human is stated for the PTPSL 332-655 construct; STEP (PTPN5), residues 257-539 (catalytic domain); mouse is stated for the STEP 213-539 construct; Chimera of PTPSL KIMKIS fused to STEPCAT; source: gene synthesized by DNA 2.0; final SEC
[7]
  Kd: 47 nM
  dH: -18.5 kcal/mol
p38α [1]
  relative binding to p38α (in words): binds marginally more tightly to p38α than any of the WT-KIM-PTPs
ERK2 [2]; ERK2, ITC
  relative binding to ERK2 (in words): binds to ERK2 with about equal binding strength as STEP
ERK2 [2]; unphosphorylated ERK2, ITC, 25 °C, 10 mM Tris pH 7.5, 150 mM NaCl, 0.1 mM EDTA, 0.5 mM TCEP, average and standard deviation, triplicate
  TΔS: -8.5 ± 0.7 kcal/mol
